Assay results reported in PMC8829827, “Dynamics of Cations around DNA and Protein as Revealed by 23Na Diffusion NMR Spectroscopy”.

Molecular target: Antp homeodomain (C39S) (fruit fly, UniProt P02833 297-356, C335S)
Experiment: 23Na diffusion NMR (Na+ release on complex formation); 1.10 mM protein, 1.52 mM DNA; 14.7 +/- 1.7 Na+ released per complex; sodium succinate buffer (20 mM Na+, 11.3 mM succinate), pH 5.8, 25 C
Conditions: protein: recombinant; blunt

Sequence of Antp homeodomain (C39S) (P02833 297-356 C335S): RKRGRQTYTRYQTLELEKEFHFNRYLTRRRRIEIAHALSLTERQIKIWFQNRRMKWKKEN

B1: 15-bp DNA duplex with Antp recognition sequence (dsDNA)
DNA 1: AGAAAGCCATTAGAG
DNA 2: CTCTAATGGCTTTCT
- binding result: binds
